{"source": "paper PMC4176381", "molecular_target": "CSL (RBPJ) (Mus musculus) (UniProt P31266)", "sequence (P31266 53-474)": "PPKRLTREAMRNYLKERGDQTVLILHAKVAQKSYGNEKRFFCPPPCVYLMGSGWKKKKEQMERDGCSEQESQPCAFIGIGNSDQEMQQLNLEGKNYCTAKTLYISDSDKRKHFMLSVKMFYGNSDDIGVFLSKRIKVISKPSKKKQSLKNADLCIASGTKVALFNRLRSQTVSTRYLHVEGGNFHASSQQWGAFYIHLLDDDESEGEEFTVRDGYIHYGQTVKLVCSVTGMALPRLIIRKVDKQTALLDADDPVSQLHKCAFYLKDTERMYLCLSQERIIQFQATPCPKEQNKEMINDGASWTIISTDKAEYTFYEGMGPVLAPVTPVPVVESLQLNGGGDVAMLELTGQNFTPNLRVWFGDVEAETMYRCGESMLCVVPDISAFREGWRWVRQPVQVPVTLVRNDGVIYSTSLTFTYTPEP", "assay": "ITC", "details": "text: measurable, albeit weak, binding; ITC: 50 mM sodium phosphate pH 6.5, 150 mM NaCl, 10 C (10 uM CSL in cell, 100 uM DNA in syringe). EMSA: 150 mM KCl, 50 mM Tris pH 7.4, 1 mM DTT, 2% polyvinyl …"}
{"substance": "ITC duplex CGTGAAAA", "values": [{"measurement": "Kd", "result": "> 50", "unit": "µM"}]}
